The target in one assay is T1, human FcRn (human, UniProt P55899 24-297; P61769 21-119, limits assumed, biotinylated).
T1 construct: bought; also called FcRn pH6
The experiment in a line: SPR, pH6.0. In general terms: SPR reads the build-up and loss of mass on a sensor chip optically.

In assay [1] the target is T2, human FcγR1A (human, UniProt P12314 16-288, biotinylated).
T2 construct: bought; also called CD64A
The experiment in a line: SPR 37C, kinetic; wild-type hIgG1 Fc.
Procedure: (§1) For the high affinity FcR interactions (FcγR1A, and also FcRn assessed at pH6.0) the binding was assessed in a kinetic analysis with antibody as analyte. […] Reference flow cell 1 was left empty in all channels. Purified antibody was then injected at a single concentration and on/off rates calculated by curve fitting on BiaEvaluation software.

For assay [2], the target named is T3, human FcγR2A 131R (human, UniProt P12318 34-217).
T3 construct: extracellular domain
T3 sequence (looked up): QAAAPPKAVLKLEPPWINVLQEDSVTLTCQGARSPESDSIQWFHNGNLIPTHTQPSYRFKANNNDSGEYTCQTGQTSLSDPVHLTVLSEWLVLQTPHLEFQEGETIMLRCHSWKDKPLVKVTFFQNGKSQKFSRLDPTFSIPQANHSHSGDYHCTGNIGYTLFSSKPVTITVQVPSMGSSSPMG
The experiment in a line: SPR 37C, steady state; wild-type hIgG1 Fc.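 Note: fc variants captured on chip-bound human BTLA ectodomain, recombinant FcγR ectodomains injected as analyte at varied concentrations, double-referenced equilibrium binding fitted to Langmuir model.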
Procedure: (§2) For the low affinity FcγRs (FcγR2A, FcγR2B, FcγR3A and FcγR3B) the interactions were assessed by surface plasmon resonance with the recombinantly expressed FcRs (extracellular domains only) as analyte. Briefly, recombinant human BTLA extracellular domain (BTLA^K31-R151) was covalently immobilised to both flow cells of all channels of a CMS Series S sensor chip using the GE Healthcare Amine coupling kit. The 2.8.6 Fc variant to be assessed was then captured (approx. 500-1000 response units) in flow cell 2 of each channel. Steady state affinity analysis was then performed by injecting varying concentrations of FcR in multiple cycles and measuring equilibrium binding. Double referencing was used (subtracting the signal in the reference Fc1 and also subtracting the signal from a blank zero concentration injection). KDs were calculated from the Langmuir curves (plotting equilibrium binding against analyte concentration to determine the concentration required for half maximal binding).

Assay [3] addresses T4, human FcγR2A 131H (human, UniProt P12318 34-217).
T4 construct: extracellular domain
T4 sequence (looked up): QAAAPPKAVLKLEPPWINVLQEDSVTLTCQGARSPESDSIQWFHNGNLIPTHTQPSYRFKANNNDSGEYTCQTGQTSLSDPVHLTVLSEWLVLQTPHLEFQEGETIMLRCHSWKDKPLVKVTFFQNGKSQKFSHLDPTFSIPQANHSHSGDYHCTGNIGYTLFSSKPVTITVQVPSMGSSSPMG
The experiment in a line: SPR 37C, steady state; wild-type hIgG1 Fc.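 Note: fc variants captured on chip-bound human BTLA ectodomain, recombinant FcγR ectodomains injected as analyte at varied concentrations, double-referenced equilibrium binding fitted to Langmuir model.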
Procedure: as §2

The target of assay [4] is T5, human FcγR2B (human, UniProt P31994 43-217).
T5 construct: extracellular domain; also called hFcγR2B; CD32B
T5 sequence (looked up): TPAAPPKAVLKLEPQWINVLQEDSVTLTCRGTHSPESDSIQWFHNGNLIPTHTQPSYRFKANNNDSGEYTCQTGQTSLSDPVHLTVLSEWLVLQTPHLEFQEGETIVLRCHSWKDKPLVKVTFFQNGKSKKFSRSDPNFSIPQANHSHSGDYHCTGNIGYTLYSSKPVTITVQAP
As to the kind of experiment: SPR 37C, steady state; wild-type hIgG1 Fc.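 Note: fc variants captured on chip-bound human BTLA ectodomain, recombinant FcγR ectodomains injected as analyte at varied concentrations, double-referenced equilibrium binding fitted to Langmuir model.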
Procedure: as §2

Assay [5] has as its target T6, human FcγR3A 158F (human, UniProt P08637 17-208).
T6 construct: extracellular domain
As to the kind of experiment: SPR 37C, steady state; wild-type hIgG1 Fc.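 Note: fc variants captured on chip-bound human BTLA ectodomain, recombinant FcγR ectodomains injected as analyte at varied concentrations, double-referenced equilibrium binding fitted to Langmuir model.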
Procedure: as §2

In assay [6] the target is T7, human FcγR3A 158V (human, UniProt P08637 17-208).
T7 construct: extracellular domain
As to the kind of experiment: SPR 37C, steady state; wild-type hIgG1 Fc.
Procedure: as §2

Assay [7] deals with T8, human FcγR3B (human, UniProt O75015 17-200, limits assumed).
T8 construct: extracellular domain; also called CD16B
The experiment in a line: SPR 37C, steady state; wild-type hIgG1 Fc.
Procedure: as §2

The target in assay [8] is T3, human FcγR2A 131R. As to the kind of experiment: SPR 37C, steady state.
Procedure: as §2
Assay [9] has as its target T5, human FcγR2B. As to the kind of experiment: SPR 37C, steady state.
Procedure: as §2
In assay [10] the target is T4, human FcγR2A 131H. As to the kind of experiment: SPR 37C, steady state; hIgG4 P238D Fc variant.
Procedure: For the low affinity FcγRs (FcγR2A, FcγR2B, FcγR3A and FcγR3B) the interactions were assessed by surface plasmon resonance with the recombinantly expressed FcRs (extracellular domains only) as analyte. […] The 2.8.6 Fc variant to be assessed was then captured (approx. 500-1000 response units) in flow cell 2 of each channel. Steady state affinity analysis was then performed by injecting varying concentrations of FcR in multiple cycles and measuring equilibrium binding. Double referencing was used (subtracting the signal in the reference Fc1 and also subtracting the signal from a blank zero concentration injection). KDs were calculated from the Langmuir curves (plotting equilibrium binding against analyte concentration to determine the concentration required for half maximal binding).
Assay [11] addresses T9, monomeric soluble human BTLA extracellular domain (BTLA K31-R151) (human, UniProt Q7Z6A9 31-151).
T9 construct: also called hBTLA; monomeric BTLA
The experiment in a line: SPR, monomeric BTLA.

Assay [12] addresses T2, human FcγR1A. As to the kind of experiment: SPR 37C, kinetic.
Procedure: as §1
For assay [13], the target named is T10, full length human BTLA expressed on cells (human, UniProt Q7Z6A9 31-289). The experiment in a line: cell-based or functional assay.
Assay [14] has as its target T4, human FcγR2A 131H. The experiment in a line: SPR 37C, steady state.
Procedure: as §2
Assay [15] deals with T6, human FcγR3A 158F. The experiment in a line: SPR 37C, steady state.
Procedure: as §2
For assay [16], the target named is T7, human FcγR3A 158V. The experiment in a line: SPR 37C, steady state.
Procedure: as §2
Assay [17] concerns the target T8, human FcγR3B. The experiment in a line: SPR 37C, steady state.
Procedure: as §2
The target in assay [18] is T10, full length human BTLA expressed on …. The experiment in a line: flow cytometry, BTLA Jurkat cells. Background: Flow cytometry measures light scatter and fluorescence of single cells or particles in a stream.
Procedure: (§3) A lentiviral transfection system was used to express full length human or cynomolgus BTLA in a Jurkat T cell line. 1×10⁵ cells per well were plated in 96 well U-bottom plates. […] Secondary antibody was incubated for 30 minutes on ice, then cells were washed and resuspended in FACS buffer for analysis on a flow cytometer. The geometric mean fluorescent intensity of secondary antibody was plotted for each concentration and the EC50 for receptor binding calculated by non-linear curve fitting using GraphPad Prism software.
(§4) The ability of the BTLA agonist antibodies of the present invention to bind to human or cynomolgus BTLA expressed on the cell surface was assessed by flow cytometry. A lentiviral transfection system was used to express full length human or cynomolgus BTLA in a Jurkat T cell line. 1×10⁵ cells per well were plated in 96 well U-bottom plates.
For assay [19], the target named is T11, full length cynomolgus BTLA expressed on Jurkat cells (cynomolgus monkey, UniProt Q7Z6A9 31-289 (human entry)).
T11 construct: also called cynomolgus BTLA expressing cells
T11 chain: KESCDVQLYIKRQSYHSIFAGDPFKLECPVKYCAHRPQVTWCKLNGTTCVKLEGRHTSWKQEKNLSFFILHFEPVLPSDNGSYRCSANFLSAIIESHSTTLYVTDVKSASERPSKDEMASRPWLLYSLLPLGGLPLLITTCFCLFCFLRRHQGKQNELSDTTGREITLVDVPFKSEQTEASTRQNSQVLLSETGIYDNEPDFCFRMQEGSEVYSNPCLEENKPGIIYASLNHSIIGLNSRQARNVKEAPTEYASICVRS
As to the kind of experiment: flow cytometry, BTLA Jurkat cells.
Procedure: as §3, §4

Assay [20] concerns the target T9, monomeric soluble human BTLA …. As to the kind of experiment: SPR Biacore 8K 37C, single cycle kinetics.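 Note: antibody captured on sensor chip, soluble BTLA extracellular domain flowed over at several concentrations in HBS-EP pH 7.4, rates fitted after subtracting isotype-control reference channel and blank.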
Procedure: (§5) The binding affinity and kinetics of humanised BTLA agonist antibodies to human or cynomolgus BTLA were determined by surface plasmon resonance using the Biacore 8K (GE Healthcare). […] Anti-BTLA antibody was then captured onto the biosensor surface and a negative control antibody (human IgG1k isotype control; Sino Biological cat #HG1K) captured in the reference channel. Various concentrations of monomeric soluble human BTLA extracellular domain (BTLA^K31-R151, produced recombinantly in house) or soluble cynomolgus macaque BTLA extracellular domain (BTLA^K31-R151, produced recombinantly in house) were then injected over the immobilized antibodies in the buffer HBS-EP (GE Healthcare, cat #BR100669), pH 7.4 (HBS-P) at 37° C., in a single cycle kinetics analysis.
Assay [21] concerns the target T12, soluble cynomolgus macaque BTLA extracellular domain (BTLA K31-R151) (cynomolgus macaque).
T12 construct: also called cynomolgus BTLA; cyno BTLA
T12 chain: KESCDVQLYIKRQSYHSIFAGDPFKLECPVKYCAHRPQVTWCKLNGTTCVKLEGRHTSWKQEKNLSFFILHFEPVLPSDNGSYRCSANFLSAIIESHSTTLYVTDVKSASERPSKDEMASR
As to the kind of experiment: SPR Biacore 8K 37C, single cycle kinetics.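 Note: antibody captured on sensor chip, soluble BTLA extracellular domain flowed over at several concentrations in HBS-EP pH 7.4, rates fitted after subtracting isotype-control reference channel and blank.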
Procedure: as §5

In assay [22] the target is T5, human FcγR2B. As to the kind of experiment: SPR (Example 23).
Procedure: as §2
Assay [23] deals with T2, human FcγR1A. The experiment in a line: SPR 37C, kinetic; hIgG1 P238D G237D P271G A330R (V9) Fc variant.
Procedure: (§6) For the high affinity FcR interactions (FcγR1A, and also FcRn assessed at pH6.0) the binding was assessed in a kinetic analysis with antibody as analyte. […] Reference flow cell 1 was left empty in all channels. Purified antibody was then injected at a single concentration and on/off rates calculated by curve fitting on BiaEvaluation software. […] IgG Fc has two binding sites for FcRn so this assessment performed with FcRn immobilised at high density provides an avidity estimate for the interaction rather than a true KD.
Assay [24] deals with T3, human FcγR2A 131R. The experiment in a line: SPR 37C, steady state; hIgG1 P238D G237D P271G A330R (V9) Fc variant.
Procedure: as §2
Assay [25] deals with T4, human FcγR2A 131H. Described as above.
Procedure: as §2
Assay [26] concerns the target T5, human FcγR2B. Described as above.
Procedure: as §2
The target of assay [27] is T6, human FcγR3A 158F. The assay is described as above.
Procedure: as §2
Assay [28] concerns the target T7, human FcγR3A 158V. Described as above.
Procedure: as §2
For assay [29], the target named is T8, human FcγR3B. The assay is described as above.
Procedure: as §2
Assay [30] deals with T2, human FcγR1A. The experiment in a line: SPR 37C, kinetic; hIgG1 D265A Fc variant.
Procedure: as §1
Assay [31] concerns the target T6, human FcγR3A 158F. As to the kind of experiment: SPR 37C, steady state; hIgG1 D265A Fc variant.
Procedure: as §2
The target in assay [32] is T8, human FcγR3B. As to the kind of experiment: SPR 37C, steady state; hIgG1 D265A Fc variant.
Procedure: as §2

T6 sequence (P08637 17-208): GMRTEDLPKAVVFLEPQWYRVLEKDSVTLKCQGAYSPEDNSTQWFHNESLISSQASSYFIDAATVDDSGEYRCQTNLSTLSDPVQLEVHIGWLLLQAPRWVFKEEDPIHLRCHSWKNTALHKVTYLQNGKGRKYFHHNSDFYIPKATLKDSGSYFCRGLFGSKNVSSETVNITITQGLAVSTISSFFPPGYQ
T8 sequence (O75015 17-200 limits assumed): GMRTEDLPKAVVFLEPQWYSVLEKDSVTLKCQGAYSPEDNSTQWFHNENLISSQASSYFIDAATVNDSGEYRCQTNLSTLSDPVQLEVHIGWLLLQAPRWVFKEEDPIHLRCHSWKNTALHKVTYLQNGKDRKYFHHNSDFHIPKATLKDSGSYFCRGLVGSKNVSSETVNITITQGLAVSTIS
T1 sequence (P55899 24-297 limits assumed, chain 1 of 2): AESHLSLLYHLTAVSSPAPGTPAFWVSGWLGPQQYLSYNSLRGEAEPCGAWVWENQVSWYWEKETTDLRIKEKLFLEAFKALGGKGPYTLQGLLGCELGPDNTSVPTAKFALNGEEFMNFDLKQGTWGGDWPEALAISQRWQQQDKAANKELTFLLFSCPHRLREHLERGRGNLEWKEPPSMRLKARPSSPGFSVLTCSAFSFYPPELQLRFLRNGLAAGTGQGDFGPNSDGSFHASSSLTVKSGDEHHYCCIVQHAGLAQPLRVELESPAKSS
T1 sequence (P61769 21-119 limits assumed, chain 2 of 2): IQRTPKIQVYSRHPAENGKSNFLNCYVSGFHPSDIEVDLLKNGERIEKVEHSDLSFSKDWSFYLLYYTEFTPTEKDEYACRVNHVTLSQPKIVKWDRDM
T2 sequence (P12314 16-288): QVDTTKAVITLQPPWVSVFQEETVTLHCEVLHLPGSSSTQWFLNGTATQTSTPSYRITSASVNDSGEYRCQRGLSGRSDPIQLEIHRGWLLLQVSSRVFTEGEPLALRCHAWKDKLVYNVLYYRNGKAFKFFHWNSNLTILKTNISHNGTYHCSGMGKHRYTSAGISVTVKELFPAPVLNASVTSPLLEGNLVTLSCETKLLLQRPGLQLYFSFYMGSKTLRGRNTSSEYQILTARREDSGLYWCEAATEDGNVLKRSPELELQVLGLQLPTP
T7 sequence (P08637 17-208 F176V): as the sequence (P08637 17-208) above, with F160V counted along it
Procedure for human FcRn: as §6

B1: humanised 2.8.6 hIgG1 (antibody)
heavy: not shown
VL: EIVLTQSPATLSLSPGERATLSCRASSSVSYMHWYQQKPGQAPRPLIYATSNRATGIPARFSGSGSGTDYTLTISSLEPEDFAVYYCHQWSSNPYTFGQGTKLEIKRTVAAPSVFIFPPSDEQLKSGTASVVCLLNNFYPREAKVQWKVDNALQSGNSQESVTEQDSKDSTYSLSSTLTLSKADYEKHKVYACEVTHQGLSSPVTKSFNRGEC
notes: Fc variant with the variable domains of humanised 2.8.6; not shown: human IgG1 heavy chain constant region; copies: 2 + 2
As usually defined, the Kd is a measure of binding affinity in units of concentration. Read a high Kd as a looser complex. Regarding B1, the “avidity (FcRn pH6)” value with human FcRn turned out to be 4.58 nM. Further, the Kd in the assay with human FcγR1A [1] amounted to 3.75 nM; in the assay with human FcγR2A 131R [2], 1570 nM; with human FcγR2A 131H [3], 1980 nM; with human FcγR2B [4], 8.65 µM; with human FcγR3A 158F [5], 9.37 µM; with human FcγR3A 158V [6], 2780 nM. This molecule also yielded a Kd in the assay with human FcγR3B [7] of 22.9 µM.

B2: humanised 2.8.6 hIgG4 P238D (antibody)
heavy: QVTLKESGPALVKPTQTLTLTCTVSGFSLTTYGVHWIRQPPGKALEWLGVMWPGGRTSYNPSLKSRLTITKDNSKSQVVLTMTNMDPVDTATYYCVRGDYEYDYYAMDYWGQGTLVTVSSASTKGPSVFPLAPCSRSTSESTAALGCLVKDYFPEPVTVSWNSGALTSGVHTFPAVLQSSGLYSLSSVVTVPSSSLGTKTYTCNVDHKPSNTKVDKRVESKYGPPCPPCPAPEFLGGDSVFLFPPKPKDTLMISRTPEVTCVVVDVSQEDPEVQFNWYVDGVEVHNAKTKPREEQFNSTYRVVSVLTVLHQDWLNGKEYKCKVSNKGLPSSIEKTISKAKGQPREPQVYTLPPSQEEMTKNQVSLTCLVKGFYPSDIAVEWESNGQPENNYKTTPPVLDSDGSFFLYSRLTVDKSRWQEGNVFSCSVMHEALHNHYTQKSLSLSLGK
VL: EIVLTQSPATLSLSPGERATLSCRASSSVSYMHWYQQKPGQAPRPLIYATSNRATGIPARFSGSGSGTDYTLTISSLEPEDFAVYYCHQWSSNPYTFGQGTKLEIKRTVAAPSVFIFPPSDEQLKSGTASVVCLLNNFYPREAKVQWKVDNALQSGNSQESVTEQDSKDSTYSLSSTLTLSKADYEKHKVYACEVTHQGLSSPVTKSFNRGEC
notes: Fc variant with the variable domains of humanised 2.8.6; not shown: human IgG4 heavy chain constant region; copies: 2 + 2
Regarding B2, the Kd is 47.9 µM in the assay with human FcγR2A 131R [8], 17.5 µM with human FcγR2B [9] and 312 µM with human FcγR2A 131H [10].

B3: Humanised 2.8.6 (hIgG1 P238D) (antibody)
heavy: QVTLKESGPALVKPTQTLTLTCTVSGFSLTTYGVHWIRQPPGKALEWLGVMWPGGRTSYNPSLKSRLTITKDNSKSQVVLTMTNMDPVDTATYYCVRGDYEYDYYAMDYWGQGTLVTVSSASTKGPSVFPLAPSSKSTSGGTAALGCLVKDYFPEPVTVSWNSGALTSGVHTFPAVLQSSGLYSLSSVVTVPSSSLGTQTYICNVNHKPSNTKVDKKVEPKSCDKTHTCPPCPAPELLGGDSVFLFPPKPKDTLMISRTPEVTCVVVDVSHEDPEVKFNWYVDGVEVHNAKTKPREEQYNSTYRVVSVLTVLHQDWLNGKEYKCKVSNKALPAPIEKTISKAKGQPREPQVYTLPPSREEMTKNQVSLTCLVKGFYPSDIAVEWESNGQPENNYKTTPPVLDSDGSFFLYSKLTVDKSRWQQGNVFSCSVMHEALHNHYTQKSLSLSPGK
light: EIVLTQSPATLSLSPGERATLSCRASSSVSYMHWYQQKPGQAPRPLIYATSNRATGIPARFSGSGSGTDYTLTISSLEPEDFAVYYCHQWSSNPYTFGQGTKLEIKRTVAAPSVFIFPPSDEQLKSGTASVVCLLNNFYPREAKVQWKVDNALQSGNSQESVTEQDSKDSTYSLSSTLTLSKADYEKHKVYACEVTHQGLSSPVTKSFNRGEC
notes: copies: 2 + 2
One may read the EC50 as the concentration that produces a half-maximal response. As a reminder, the koff is a measure of how fast the partners let go of each other. The term kon denotes a measure of how fast the partners come together. The low end stands for slower complex formation, the high end for faster complex formation. B3: in the assay with human FcRn, the “avidity (FcRn pH6)” value stood at 1.43 nM. Also, the Kd was determined as 0.73 nM in [11]; 465 nM with human FcγR1A [12]; 28.9 µM with human FcγR2A 131R [8]; 76.5 µM with human FcγR2A 131H [14]; 4.78 µM with human FcγR2B [9]; 2.48 mM with human FcγR3A 158F [15]. For the same molecule, the Kd with human FcγR3A 158V [16] is 7.01 mM; in the assay with human FcγR3B [17], 1.58 mM; in assay [20], 2.33 nM; in assay [21] it was 147 nM. Further, the “inhibition of NFkB signal, IC50” value in assay [13] was 59 pM. Besides, the “maximal inhibition of NFkB signal” value in assay [13] turned out to be 42%. The EC50 was 0.066 nM in assay [18] and 0.854 nM in [19]. Besides, the koff was 0.00157 s⁻¹ in [20] and 0.025 s⁻¹ in assay [21]. The results for the kon in assay [20] and in [21] were 673000 M⁻¹ s⁻¹ and 170000 M⁻¹ s⁻¹, respectively.

B4: humanised 2.8.6 hIgG1 P238D G237D P271G A330R (V9) (antibody)
heavy: QVTLKESGPALVKPTQTLTLTCTVSGFSLTTYGVHWIRQPPGKALEWLGVMWPGGRTSYNPSLKSRLTITKDNSKSQVVLTMTNMDPVDTATYYCVRGDYEYDYYAMDYWGQGTLVTVSSASTKGPSVFPLAPSSKSTSGGTAALGCLVKDYFPEPVTVSWNSGALTSGVHTFPAVLQSSGLYSLSSVVTVPSSSLGTQTYICNVNHKPSNTKVDKKVEPKSCDKTHTCPPCPAPELLGDDSVFLFPPKPKDTLMISRTPEVTCVVVDVSHEDGEVKFNWYVDGVEVHNAKTKPREEQYNSTYRVVSVLTVLHQDWLNGKEYKCKVSNKALPRPIEKTISKAKGQPREPQVYTLPPSREEMTKNQVSLTCLVKGFYPSDIAVEWESNGQPENNYKTTPPVLDSDGSFFLYSKLTVDKSRWQQGNVFSCSVMHEALHNHYTQKSLSLSPGK
light: EIVLTQSPATLSLSPGERATLSCRASSSVSYMHWYQQKPGQAPRPLIYATSNRATGIPARFSGSGSGTDYTLTISSLEPEDFAVYYCHQWSSNPYTFGQGTKLEIKRTVAAPSVFIFPPSDEQLKSGTASVVCLLNNFYPREAKVQWKVDNALQSGNSQESVTEQDSKDSTYSLSSTLTLSKADYEKHKVYACEVTHQGLSSPVTKSFNRGEC
notes: Fc variant with the variable domains of humanised 2.8.6; also called 2.8.6 hIgG1 V9; hIgG1 V9 isotype; copies: 2 + 2
For B4, in the assay with human FcRn, the “avidity (FcRn pH6)” value came to 1.98 nM. Moreover, the “fold higher affinity than the P238D isotype” value in the assay with human FcγR2B [22] was roughly 30 fold. Besides, the Kd with human FcγR1A [23] was 697 nM; in the assay with human FcγR2A 131R [24], 1840 nM; with human FcγR2A 131H [25], 26.2 µM; with human FcγR2B [26], 173 nM; with human FcγR3A 158F [27], 216 µM; with human FcγR3A 158V [28], 321 µM. The molecule further had a Kd in the assay with human FcγR3B [29] of 6.09 mM.

B5: humanised 2.8.6 hIgG1 D265A (antibody)
heavy: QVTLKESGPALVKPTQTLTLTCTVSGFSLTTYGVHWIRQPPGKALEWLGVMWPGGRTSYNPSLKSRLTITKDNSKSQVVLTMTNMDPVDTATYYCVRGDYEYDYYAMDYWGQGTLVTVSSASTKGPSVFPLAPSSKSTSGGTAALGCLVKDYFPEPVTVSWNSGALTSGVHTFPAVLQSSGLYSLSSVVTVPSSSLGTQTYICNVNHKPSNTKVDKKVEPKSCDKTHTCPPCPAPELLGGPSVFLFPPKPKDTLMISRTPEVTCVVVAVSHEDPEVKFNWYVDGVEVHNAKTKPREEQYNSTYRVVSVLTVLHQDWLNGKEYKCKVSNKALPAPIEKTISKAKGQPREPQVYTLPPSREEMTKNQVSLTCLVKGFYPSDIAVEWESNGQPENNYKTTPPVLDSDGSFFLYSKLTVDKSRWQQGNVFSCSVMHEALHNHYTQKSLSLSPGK
light: EIVLTQSPATLSLSPGERATLSCRASSSVSYMHWYQQKPGQAPRPLIYATSNRATGIPARFSGSGSGTDYTLTISSLEPEDFAVYYCHQWSSNPYTFGQGTKLEIKRTVAAPSVFIFPPSDEQLKSGTASVVCLLNNFYPREAKVQWKVDNALQSGNSQESVTEQDSKDSTYSLSSTLTLSKADYEKHKVYACEVTHQGLSSPVTKSFNRGEC
notes: Fc variant with the variable domains of humanised 2.8.6; copies: 2 + 2
For B5, in the assay with human FcRn, the “avidity (FcRn pH6)” value was 12 nM. In addition, the Kd with human FcγR2A 131R [8] came out at 48.3 µM; with human FcγR2A 131H [14] it was 40.1 µM; in the assay with human FcγR2B [9] it was 193 µM; with human FcγR1A [30] it was 497 nM; in the assay with human FcγR3A 158F [31] it was 1.49 mM; in the assay with human FcγR3B [32], 5.2 mM. Moreover, the binding result in the assay with human FcγR3A 158V [16] is “no binding”.

Values taken from US20230235058A1 (OXFORD UNIVERSITY INNOVATION, published 2023).
